These results are taken from US20020062008A1 (ICOS, published 2002).

B1: soluble ICAM-1/IgG1 fusion protein (Fc fusion, UniProt P05362 28-480, looked up)
chain: QTSVSPSKVILPRGGSVLVTCSTSCDQPKLLGIETPLPKKELLLPGNNRKVYELSNVQEDSQPMCYSNCPDGQSTAKTFLTVYWTPERVELAPLPSWQPVGKNLTLRCQVEGGAPRANLTVVLLRGEKELKREPAVGEPAEVTTTVLVRRDHHGANFSCRTELDLRPQGLELFENTSAPYQLQTFVLPATPPQLVSPRVLEVDTQGTVVCSLDGLFPVSEAQVHLALGDQRLNPTVTYGNDSFSAKASVSVTAEDEGTQRLTCAVILGNQSQETLQTVTIYSFPAPNVILTKPEVSEGTEVTVKCEAHPRAKVTLNGVPAQPLGPRAQLLLKATPEDNGRSFSCSATLEVAGQLIHKNQTRELRVLYGPRLDERDCPGNWTWPENSQQTPMCQAWGNPLPELKCLKDGTFPLPIGESVTVTRDLEGTYLCRARSTQGEVTRKVTVNVLSPRYE
notes: not shown: IgG1 portion (detected with anti-human IgG1)
B5: soluble VCAM-1/IgG1 fusion protein (seven extracellular immunoglobulin-like domains) (Fc fusion, UniProt P19320 25-698, looked up)
chain: FKIETTPESRYLAQIGDSVSLTCSTTGCESPFFSWRTQIDSPLNGKVTNEGTTSTLTMNPVSFGNEHSYLCTATCESRKLEKGIQVEIYSFPKDPEIHLSGPLEAGKPITVKCSVADVYPFDRLEIDLLKGDHLMKSQEFLEDADRKSLETKSLEVTFTPVIEDIGKVLVCRAKLHIDEMDSVPTVRQAVKELQVYISPKNTVISVNPSTKLQEGGSVTMTCSSEGLPAPEIFWSKKLDNGNLQHLSGNATLTLIAMRMEDSGIYVCEGVNLIGKNRKEVELIVQEKPFTVEISPGPRIAAQIGDSVMLTCSVMGCESPSFSWRTQIDSPLSGKVRSEGTNSTLTLSPVSFENEHSYLCTVTCGHKKLEKGIQVELYSFPRDPEIEMSGGLVNGSSVTVSCKVPSVYPLDRLEIELLKGETILENIEFLEDTDMKSLENKSLEMTFIPTIEDTGKALVCQAKLHIDDMEFEPKQRQSTQTLYVNVAPRDTTVLVSPSSILEEGSSVNMTCLSQGFPAPKILWSRQLPNGELQPLSENATLTLISTKMEDSGVYLCEGINQAGRSRKEVELIIQVTPKDIKLTAFPSESVKEGDTVIISCTCGNVPETWIILKKKAETGDTVLKSIDGAYTIRKAQLKDAGVYECESKNKVGSQLRSLTLDVQGRENNKDYFSPE
notes: domain: seven extracellular immunoglobulin-like domains; not shown: IgG1 portion

The target of test [1] is T1, human αd/CD18 heterodimer expressed on transfected cells (COS, CHO, JY) (human, UniProt P05107 23-769).
T1 construct: whole, on cells; also used as detergent lysate in immunoprecipitations; also called αd/CD18 CHO transfected cells; αd/CD18 co-transfectants
Description: adhesion of CHO transfectants to immobilized CAM, crystal violet. As to the method:
(§1) The ability of CHO cells expressing either α₄β₁ or αdβ₂ to bind a five domain VCAM-1/Ig fusion protein or ICAM-1/Ig fusion protein was tested as follows. CAMs were immobilized on 96 well microtiter plates at 0.5 μg/well in bicarbonate buffer (pH 9.5). Plates were blocked with 1% fish gelatin and treated with either buffer, irrelevant antibody or a blocking VCAM-1 antibody. […] Cells were washed before addition to the CAM-coated wells at a density of 100,000 cells per well. Cells were incubated in the presence of the immobilized […] for twenty minutes before addition of 5% glutaraldehyde. Following fixation, plates were washed with distilled water and cells were stained with 1% crystal violet, After destaining with 66% ethanol for several hours, absorbance at 570 nm was measured on a Dynatech plate reader.

Test [2] addresses T2, α4β1 expressed on CHO cells (UniProt P13612 34-1032; P05556 21-798, limits assumed).
T2 construct: whole, on cells; also called α4 transformed CHO cells; α4 transfected line
The description is as above. The protocol: as §1

Test [3] has as its target T3, LFA-1 leucine zipper fusion protein (soluble CD11a/CD18) (UniProt P20701 26-1090; P05107 23-700).
T3 construct: also called LFA-1LZ; captured CD11a/CD18
Description: ELISA, CAM/Ig on captured soluble CD11a/CD18. The protocol: (§2) The same protocol was used to immobilize the anti-CD11a antibody TS2/4.1 for immobilization of a LFA-1 leucine zipper (LFA-1LZ) fusion protein; LFA-1 was used as a negative control for VCAM-1 binding and a positive control for ICAM-1 binding. The plates were blocked with 300 μl/well 3% bovine serum albumin for one hour and washed in D-PBS. Tissue culture supernatants from stable CHO transfectants expressing either αd/CD18LZ or LFA-1LZ were added at 100 μl/well and allowed to incubate for 6 to 8 hours at 4° C. The plates were washed twice with Tris-buffered saline with Tween® 20 (TBS-T), followed by one wash with TBS (no Tween®) containing 2 mM each calcium chloride, magnesium chloride, and manganese chloride. The latter served as assay and wash buffer during the remainder of the assay.
(§3) After integrin capture, the plates were washed three times with 250 μl/well TBS. Purified CAM/Ig (see Example 12) was added to each well following serial 2:3 dilutions starting at a concentration of 10 to 20 μg/ml. CAM/Igs were allowed to bind for two hours at room temperature before plates were washed as above. Bound fusion protein was detected with horseradish peroxidase-conjugated goat anti-human Ig antibody (Jackson Labs) followed by development with o-phenyldiamine (OPD).
(In general: In an ELISA, binding on a coated surface is turned into a signal by an enzyme label.)

The target in test [4] is T1, human αd/CD18 heterodimer expressed on …. Description: adhesion of CHO transfectants to immobilized CAM, crystal violet A570. The protocol: as §1
Test [5] addresses B5. Description: ELISA, bound IgG4 detected with HP6023.
The target of test [6] is T4, soluble ICAM-R/IgG1 fusion protein (UniProt P32942 30-485, limits assumed).
T4 construct: not shown: IgG1 portion
T4 sequence (looked up): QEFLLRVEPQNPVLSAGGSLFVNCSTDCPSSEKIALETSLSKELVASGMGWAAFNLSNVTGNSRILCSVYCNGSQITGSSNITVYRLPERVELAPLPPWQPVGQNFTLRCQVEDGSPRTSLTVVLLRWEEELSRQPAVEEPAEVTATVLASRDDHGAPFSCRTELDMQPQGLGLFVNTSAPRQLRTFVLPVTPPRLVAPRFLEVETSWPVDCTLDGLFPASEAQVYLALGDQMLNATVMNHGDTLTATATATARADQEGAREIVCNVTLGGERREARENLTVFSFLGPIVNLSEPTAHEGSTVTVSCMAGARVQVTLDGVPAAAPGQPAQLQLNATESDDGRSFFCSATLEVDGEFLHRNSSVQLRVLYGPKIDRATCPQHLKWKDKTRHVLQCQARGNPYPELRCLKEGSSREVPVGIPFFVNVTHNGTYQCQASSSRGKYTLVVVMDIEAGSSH
Description: ELISA, bound IgG4 detected with HP6023.

In test [7] the target is T1, human αd/CD18 heterodimer expressed on …. Description: adhesion of αdβ2-transfected CHO cells to coated wells. The protocol: For transfected and parental CHO cells, adhesion was performed using coated plates identical to those employed for eosinophil adhesion. […] A modification of a previously described gentle washing technique [Shanley, et al., J. Immunol. 160:1014 (1998)] was therefore employed. This technique allowed non-adherent cells to be dislodged from the inverted plate with centrifugation at 1×g for 30 minutes at 20° C. Remaining adherent cells were then removed using 0.1 M EDTA (Sigma) and counted by flow cytometry. In addition to VCAM-1, E-selection (100 ng/ml) was also used to coat wells in some adhesion experiments. In addition to the blocking monoclonal antibodies used in the eosinophil studies, immobilized VCAM-1 was pretreated with an appropriate dilution of F(ab′)₂ anti-VCAM-1 monoclonal antibody prior to the addition of CHO cells.
Chinese hamster ovary cells were transfected as described in Example 11. The αdβ₂-transfected CHO cells were cultured in DMEM/F12 media with 1 mM pyruvate and 2 mM L-glutamine (Biofluids) supplemented with 10% dialyzed FBS, 100 U/ml penicillin, 100 μg/ml streptomycin, and 600 μg/ml G418 (all from Life Technologies). Media for culture of the parental CHO cell line was similar except that non-dialyzed FBS (Life Technologies) was used and 0.1 mM hypoxanthine and 16 nM thymidine (Sigma) were used in place of the G418. […]

The target of test [8] is T3, LFA-1 leucine zipper fusion protein …. Description: ELISA on LFA-1LZ captured with TS2/4.1. The protocol: as §2, §3
A further test has as its target T5, bovine serum albumin (bovine, UniProt P02769 25-607).
T5 construct: also called BSA
Briefly: ELISA, bound IgG4 detected with HP6023.

Test [9] concerns the target B1. Briefly: ELISA, bound IgG4 detected with HP6023.

T5 sequence (P02769 25-607 limits assumed): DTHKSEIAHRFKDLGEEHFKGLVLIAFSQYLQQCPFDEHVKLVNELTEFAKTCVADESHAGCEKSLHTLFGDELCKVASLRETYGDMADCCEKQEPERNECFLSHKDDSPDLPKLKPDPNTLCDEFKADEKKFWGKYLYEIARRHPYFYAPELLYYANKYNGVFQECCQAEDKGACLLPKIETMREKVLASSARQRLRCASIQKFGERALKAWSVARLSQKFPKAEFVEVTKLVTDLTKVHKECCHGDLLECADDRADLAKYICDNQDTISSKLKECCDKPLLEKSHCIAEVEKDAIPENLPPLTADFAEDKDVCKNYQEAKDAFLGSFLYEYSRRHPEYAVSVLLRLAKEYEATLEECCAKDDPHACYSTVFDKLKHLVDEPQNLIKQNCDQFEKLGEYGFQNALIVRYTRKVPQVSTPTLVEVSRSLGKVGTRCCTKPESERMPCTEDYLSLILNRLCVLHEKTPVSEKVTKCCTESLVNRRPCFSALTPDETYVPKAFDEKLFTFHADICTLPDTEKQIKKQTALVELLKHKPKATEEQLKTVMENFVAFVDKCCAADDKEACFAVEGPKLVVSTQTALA

Turning to B1, the binding result in [1] and in test [2] was “no binding (tested: 0.5 µg/well coat)” in each case. For the same molecule, the fold above background in [3] was approximately 15 fold.

B2: VCAM-1 domains 1 and 2 fused to human immunoglobulin Fc (Fc fusion, UniProt P19320 25-220, looked up, not shown: a dimerising Fc or GST)
chain: FKIETTPESRYLAQIGDSVSLTCSTTGCESPFFSWRTQIDSPLNGKVTNEGTTSTLTMNPVSFGNEHSYLCTATCESRKLEKGIQVEIYSFPKDPEIHLSGPLEAGKPITVKCSVADVYPFDRLEIDLLKGDHLMKSQEFLEDADRKSLETKSLEVTFTPVIEDIGKVLVCRAKLHIDEMDSVPTVRQAVKELQVY
notes: domain: domains 1 and 2; also called two domain form of VCAM-1
For the molecule B2, the binding result in test [4] is on record as “binds”.

B3: CD11a I domain/IgG chimeric protein (Fc fusion, UniProt P20701 153-332, looked up)
chain: GNVDLVFLFDGSMSLQPDEFQKILDFMKDVMKKLSNTSYQFAAVQFSTSYKTEFDFSDYVKRKDPDALLKHVKHMLLLTNTFGAINYVATEVFREELGARPDATKVLIIITDGEATDSGNIDAAKDIIRYIIGIGKHFQTKESQETLHKFASKPASEFVKILDTFEKLKDLFTELQKKIY
notes: domain: I domain; Negative control; also called CD11a/IgG4 protein; not shown: IgG4 portion
As to B3, the binding result in [5] and in test [6] was “no binding” throughout.

B4: E-selectin, immobilized recombinant (ligand, UniProt P16581 22-556, looked up)
chain: WSYNTSTEAMTYDEASAYCQQRYTHLVAIQNKEEIEYLNSILSYSPSYYWIGIRKVNNVWVWVGTQKPLTEEAKNWAPGEPNNRQKDEDCVEIYIKREKDVGMWNDERCSKKKLALCYTAACTNTSCSGHGECVETINNYTCKCDPGFSGLKCEQIVNCTALESPEHGSLVCSHPLGNFSYNSSCSISCDRGYLPSSMETMQCMSSGEWSAPIPACNVVECDAVTNPANGFVECFQNPGSFPWNTTCTFDCEEGFELMGAQSLQCTSSGNWDNEKPTCKAVTCRAVRQPQNGSVRCSHSPAGEFTFKSSCNFTCEEGFMLQGPAQVECTTQGQWTQQIPVCEAFQCTALSNPERGYMNCLPSASGSFRYGSSCEFSCEQGFVLKGSKRLQCGPTGEWDNEKPTCEAVRCDAVHQPPKGLVRCAHSPIGEFTYKSSCAFSCEEGFELHGSTQLECTSQGQWTEEVPSCQVVKCSSLAVPGKINMSCSGEPVFGTVCKFACPEGWTLNGSAARTCGATGHWSGLLPTCEAPTESNIP
notes: also called E-selection
In the case of B4, the binding result in test [7] was “no binding (tested: 100 ng/ml coat)”.

B5: the binding result in [8] was “no binding”.

B6: human αd I domain/IgG4 fusion protein (Fc fusion)
chain: IVFLIDGSGSIDQNDFNQMKGFVQAVMGQFEGTDTLFALMQYSNLLKIHFTFTQFRTSPSQQSLVDPIVQLKGLTFTATGILTVVTQLFHHKNGARKSAKKILIVITDGQKYKDPLEYSDVIPQAEKAGIIRYAIGVGHAFQGPTARQELNTISSAPPQDHVFKVDNFAALGSIQKQLQEKIYAVEGTQSRASSSFQHEMSQE
notes: Residue limits approximate; also called Iαd/IgG4; I domain chimera; not shown: human IgG4 portion
Regarding B6, the binding result (with bovine serum albumin; in [9]) was “no binding” throughout.
